Assay [1] deals with T1, hCEACAM5, human CEACAM5 ECD (35-685) (human, UniProt P06731 35-685).
T1 construct: produced in HEK293; also called human CEACAM5 protein; human CEACAM5 extracellular domain
T1 sequence: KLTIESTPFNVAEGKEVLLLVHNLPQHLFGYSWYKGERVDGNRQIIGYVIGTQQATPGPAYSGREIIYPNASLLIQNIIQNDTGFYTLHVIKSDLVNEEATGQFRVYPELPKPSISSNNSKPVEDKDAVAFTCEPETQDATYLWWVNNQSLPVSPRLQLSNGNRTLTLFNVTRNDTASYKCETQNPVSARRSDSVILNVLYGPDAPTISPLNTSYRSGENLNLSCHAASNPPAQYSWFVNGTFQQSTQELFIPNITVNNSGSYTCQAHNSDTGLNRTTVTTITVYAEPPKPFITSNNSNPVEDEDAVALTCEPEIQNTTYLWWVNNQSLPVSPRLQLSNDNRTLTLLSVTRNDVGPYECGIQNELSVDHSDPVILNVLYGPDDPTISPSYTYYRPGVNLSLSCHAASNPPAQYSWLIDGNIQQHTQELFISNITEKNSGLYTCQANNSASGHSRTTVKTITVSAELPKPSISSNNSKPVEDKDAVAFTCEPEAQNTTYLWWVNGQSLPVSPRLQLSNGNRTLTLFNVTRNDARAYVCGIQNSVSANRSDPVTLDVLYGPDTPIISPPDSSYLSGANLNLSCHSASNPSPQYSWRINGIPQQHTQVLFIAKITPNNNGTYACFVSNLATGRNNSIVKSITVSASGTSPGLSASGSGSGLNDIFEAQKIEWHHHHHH
Briefly: ELISA, chimeric mAb. In general terms: An ELISA detects its analyte on a solid surface through an enzyme-linked reagent.

For assay [2], the target named is T2, cCEACAM5, M. fascicularis CEACAM5 ECD (35-688) (Macaca fascicularis).
T2 construct: ECD followed by a 24 amino acid extension containing a His-Tag; also called cynomolgus CEACAM5; monkey CEACAM5
T2 chain: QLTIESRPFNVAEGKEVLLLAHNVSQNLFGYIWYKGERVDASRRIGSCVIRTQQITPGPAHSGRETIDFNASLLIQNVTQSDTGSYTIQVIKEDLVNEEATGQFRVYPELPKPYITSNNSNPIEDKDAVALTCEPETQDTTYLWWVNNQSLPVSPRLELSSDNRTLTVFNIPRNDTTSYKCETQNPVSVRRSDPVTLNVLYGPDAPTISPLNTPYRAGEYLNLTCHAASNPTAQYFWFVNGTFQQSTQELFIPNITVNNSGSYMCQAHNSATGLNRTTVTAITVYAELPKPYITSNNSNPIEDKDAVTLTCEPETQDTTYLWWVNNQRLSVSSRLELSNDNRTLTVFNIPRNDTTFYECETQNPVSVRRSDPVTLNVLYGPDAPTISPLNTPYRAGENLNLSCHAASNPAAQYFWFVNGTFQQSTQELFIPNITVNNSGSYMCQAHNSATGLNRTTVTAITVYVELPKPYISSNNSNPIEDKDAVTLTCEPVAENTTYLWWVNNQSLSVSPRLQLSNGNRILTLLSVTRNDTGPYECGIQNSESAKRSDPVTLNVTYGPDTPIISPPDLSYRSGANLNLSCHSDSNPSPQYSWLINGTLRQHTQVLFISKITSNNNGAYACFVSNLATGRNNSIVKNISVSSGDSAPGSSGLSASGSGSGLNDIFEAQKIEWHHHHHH
Briefly: ELISA, chimeric mAb.

Values joined by “and” are separate entries in the source; they are usually repeats but may differ in a detail not shown here. Equal entries are not always repeated.

B1: chMAb2 (antibody, human IgG1, kappa, V domains shown)
VH: EVQLQESGGVLVKPGGSLKLSCAASGFVFSSYDMSWVRQTPEKRLEWVAYISSGGGITYFPDTVQGRFTVSRDNAKNTLYLQMNSLKSEDTAIYYCAAHYFGSSGPFAYWGQGTLVTVSA
VL: DIQMTQSPASLSASVGETVTITCRASENIFSYLAWYQQKQGKSPQLLVYNTKTLAEGVPSRFSGSGSGTQFSLKINSLQPEDFGSYYCQHHYGTPFTFGSGTKLEIKR
notes: Chimeric, human IgG1, Ck isotype; also called MAb2-IgG1; chimeric MAb2
As usually defined, the EC50 is the concentration at which the effect is half-maximal. Low readings indicate higher potency in that assay, high ones lower potency in that assay. Turning to B1, the EC50 in assay [1] is 0.16 nM and 0.14 nM; in assay [2] it was 0.13 nM and 0.17 nM.

Source of the values: US20220340682A1 (Sanofi, published 2022).
